# Measured values: IntAct's records for PubMed 26308901
# B1: Somatic embryogenesis receptor kinase 2 (Arabidopsis thaliana (Mouse-ear cress)), Q9XIC7 (parent)
# chain: MGRKKFEAFGFVCLISLLLLFNSLWLASSNMEGDALHSLRANLVDPNNVLQSWDPTLVNPCTWFHVTCNNENSVIRVDLGNADLSGQLVPQLGQLKNLQYLELYSNNITGPVPSDLGNLTNLVSLDLYLNSFTGPIPDSLGKLFKLRFLRLNNNSLTGPIPMSLTNIMTLQVLDLSNNRLSGSVPDNGSFSLFTPISFANNLDLCGPVTSRPCPGSPPFSPPPPFIPPPIVPTPGGYSATGAIAGGVAAGAALLFAAPALAFAWWRRRKPQEFFFDVPAEEDPEVHLGQLKRFSLRELQVATDSFSNKNILGRGGFGKVYKGRLADGTLVAVKRLKEERTPGGELQFQTEVEMISMAVHRNLLRLRGFCMTPTERLLVYPYMANGSVASCLRERPPSQLPLAWSIRQQIALGSARGLSYLHDHCDPKIIHRDVKAANILLDEEFEAVVGDFGLARLMDYKDTHVTTAVRGTIGHIAPEYLSTGKSSEKTDVFGYGIMLLELITGQRAFDLARLANDDDVMLLDWVKGLLKEKKLEMLVDPDLQSNYTEAEVEQLIQVALLCTQSSPMERPKMSEVVRMLEGDGLAEKWDEWQKVEVLRQEVELSSHPTSDWILDSTDNLHAMELSGPR
# partner: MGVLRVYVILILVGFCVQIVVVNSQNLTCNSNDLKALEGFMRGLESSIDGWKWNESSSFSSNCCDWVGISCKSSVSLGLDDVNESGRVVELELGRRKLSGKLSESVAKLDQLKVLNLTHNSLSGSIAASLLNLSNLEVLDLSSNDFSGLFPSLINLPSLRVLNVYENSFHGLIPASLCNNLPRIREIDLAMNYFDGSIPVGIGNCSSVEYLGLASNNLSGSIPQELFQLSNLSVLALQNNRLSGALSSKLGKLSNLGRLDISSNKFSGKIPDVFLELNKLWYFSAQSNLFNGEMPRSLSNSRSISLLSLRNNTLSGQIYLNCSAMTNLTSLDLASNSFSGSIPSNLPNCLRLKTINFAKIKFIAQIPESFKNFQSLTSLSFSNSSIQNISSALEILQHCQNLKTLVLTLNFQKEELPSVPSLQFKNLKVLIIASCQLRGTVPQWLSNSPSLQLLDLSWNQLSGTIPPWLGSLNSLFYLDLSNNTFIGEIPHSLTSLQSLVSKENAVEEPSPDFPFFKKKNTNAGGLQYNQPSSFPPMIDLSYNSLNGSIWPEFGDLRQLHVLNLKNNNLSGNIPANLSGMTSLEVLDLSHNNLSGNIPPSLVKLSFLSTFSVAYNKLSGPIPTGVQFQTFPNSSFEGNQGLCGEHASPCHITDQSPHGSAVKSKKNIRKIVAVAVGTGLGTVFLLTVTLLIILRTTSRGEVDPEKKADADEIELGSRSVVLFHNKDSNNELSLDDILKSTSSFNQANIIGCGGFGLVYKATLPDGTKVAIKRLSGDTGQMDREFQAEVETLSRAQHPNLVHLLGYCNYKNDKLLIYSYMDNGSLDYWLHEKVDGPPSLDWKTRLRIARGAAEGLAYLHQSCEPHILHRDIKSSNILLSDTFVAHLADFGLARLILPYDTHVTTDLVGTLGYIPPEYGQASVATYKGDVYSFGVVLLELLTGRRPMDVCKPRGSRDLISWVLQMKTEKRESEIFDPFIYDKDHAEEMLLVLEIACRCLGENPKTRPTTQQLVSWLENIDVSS
# B2: Phytosulfokine receptor 1 (Daucus carota), Q8LPB4 (parent)
# chain: B1 partner
# partner: B1 chain
# Variants of: B1
# Settings: with pskr1_dauca PSKR
row,Variant,effect of a mutation on the interaction
1,T62Y,disrupting interaction strength

# Variants of: B2
# Settings: with serk2_arath SERK2, Q9XIC7
row,Variant,effect of a mutation on the interaction
1,T629Y,disrupting interaction strength
2,S608Y,disrupting interaction strength
3,F606D,disrupting interaction strength
